Experiments:
Assay in all cases: purified protein
[1] = substrate: CC(=O)C=O; conditions: reduction, 70°C, 0.1 M sodium phosphate pH 7.0, 0.35 mM NADPH
[2] = substrate: CC(=O)CCC(C)=O; conditions: reduction, 70°C, 0.1 M sodium phosphate pH 7.0, 0.35 mM NADPH
[3] = substrate: CCCC(C)O; conditions: oxidation, 70°C, 50 mM glycine pH 10.5, 0.35 mM NADP+
[4] = substrate: C[C@H](O)CC[C@H](C)O; conditions: oxidation, 70°C, 50 mM glycine pH 10.5, 0.35 mM NADP+

B1: AdhA (Pyrococcus furiosus; INS1A) (protein)
chain: MAKVAVITGASRGIGEAIAKALAEDGYSLALGARSVDRLEKIAKELSEKHGVEVFYDYLDVSKPESVEEFARKTLAHFGDVDVVVANAGLGYFGRLEELTEEQFHEMIEVNLLGVWRTIKAFLNSLKRTGGVAIVVTSDVSARLLPYGGGYVATKWAARALVRTFQIENPDVRFFELRPGAVDTYFGGSKAGKPKEQGYLKPEEVAEAVKYLLRLPKDVRVEELMLRSIYQKPEY
B1 was tested, and the Km [1] was 1.2 ± 0.03 mM, the Vmax [1] was 10.4 µmol/min/mg and the kcat/Km [1] was 3800 M⁻¹ s⁻¹. The Km [2] was 56.4 ± 0.6 mM, the Vmax [2] was 1.9 µmol/min/mg and the kcat/Km [2] was 10 M⁻¹ s⁻¹. It also gave a Km [3] of 30.3 ± 0.4 mM, a Vmax [3] of 13.1 µmol/min/mg and a kcat/Km [3] of 100 M⁻¹ s⁻¹. For the same protein, the Km [4] was 5.4 ± 0.3 mM, the Vmax [4] was 12.8 µmol/min/mg and the kcat/Km [4] was 1000 M⁻¹ s⁻¹.
